Consider two proteins from PMC10570131, “TXNL1 has dual functions as a redox active thioredoxin-like protein as well as an ATP- and redox-independent chaperone” (Redox Biology, 2023).

This series concerns the molecule itself. Put plainly: non-reducing SDS-PAGE with Western blot; pure control proteins and chromatography fractions separated on SDS-PAGE without or with DTT, blotted with anti-TXNL1 or anti-Trx1. On the technique in general: In western blotting, separated proteins are transferred to a membrane and probed.

B1: Thioredoxin-like protein 1 (TXNL1), human, wildtype (natural protein, UniProt O43396 1-289, looked up)
chain: MVGVKPVGSDPDFQPELSGAGSRLAVVKFTMRGCGPCLRIAPAFSSMSNKYPQAVFLEVDVHQCQGTAATNNISATPTFLFFRNKVRIDQYQGADAVGLEEKIKQHLENDPGSNEDTDIPKGYMDLMPFINKAGCECLNESDEHGFDNCLRKDTTFLESDCDEQLLITVAFNQPVKLYSMKFQGPDNGQGPKYVKIFINLPRSMDFEEAERSEPTQALELTEDDIKEDGIVPLRYVKFQNVNSVTIFVQSNQGEEETTRISYFTFIGTPVQATNMNDFKRVVGKKGESH
notes: human TXNL1, open reading frame synthesised codon-optimised for E. coli; N-terminal Trx-fold domain (active site CGPC) and C-terminal PITH domain; also called TRP32; thioredoxin related protein of 32 kDa; not shown: His6, N-terminal, cleaved; GFP, N-terminal, cleaved; SUMO, N-terminal, cleaved
For the protein B1, the binding result is “binds”.

B2: Thioredoxin (Trx1), human (natural protein, UniProt P10599-1 1-105, looked up)
chain: MVKQIESKTAFQEALDAAGDKLVVVDFSATWCGPCKMIKPFFHSLSEKYSNVIFLEVDVDDCQDVASECEVKCMPTFQFFKKGQKVGEFSGANKEKLEATINELV
notes: also called TXN; not shown: His6, N-terminal, cleaved; GFP, N-terminal, cleaved; SUMO, N-terminal, cleaved
B2: the binding result was “binds”.
